In general, Kd refers to the equilibrium constant for the complex coming apart. The low end stands for tighter binding, the high end for weaker binding. A word on the tissue uptake: it is the percentage of the injected dose found per gram of tissue.

Where a SMILES comes first, the peptide text is derived from it. Bridges are numbered along the chain shown (N, C = ends). The star is where a group is joined. NODAGA = O=C(O)CN1CCN(CC(=O)O)CCN(C(CCC(=O)*)C(=O)O)CC1

Experimental findings from patent US10471162B2, “Collagen targeted imaging probes” (priority 2014, dated 2019) are described below.

The target in data set [1] is T1, rat tail collagen (Rattus norvegicus, UniProt P02454+P02466).
T1 construct: from tissue; host or cells: rat tail
Kind of data set: rat tail collagen-binding assay. The settings on record: 2 hours at room temperature, single binding site model. As to the method: Binding isotherms were obtained by following a method previously reported. (Caravan, P., Das, B., Dumas, S., Epstein, F. H., Helm, P. A., Jacques, V., Koerner, S., Kolodziej, A., Shen, L., Sun, W., Zhang, Z., Angewandte Chemie, 2007, 119(43), 8319-8321.) Briefly, increasing concentrations of a mixture of ^63/65Cu-CBP(n) and ^64Cu-CBP(n) were added to collagen containing wells. […] An aliquot of each solution was reserved as a measure of the total concentration. The plates were incubated on a shaker table (300 rpm) for 2 hours at room temperature to allow the compound to bind. After 2 hours, the supernatant from each well (with or without collagen) was assayed for ^64Cu content. The relative amount of free, unbound compound in the sample supernatants and the amount of compound in the reserved (total) sample were determined by using a gamma counter. The bound concentration is [Total]−[Free]. The concentration of ^63/65Cu-CBP(n) was less than the collagen concentration and the data were fit to a model of a single binding site with dissociation constant, Kd.

A short description of data set [2]: in vivo. In kind it is in vivo, mouse. Conditions: male, C57/BL6, mouse, in vivo, iv, total radioactivity; for tissue uptake at 2 h / tissue uptake at 2.5 h: Biodistribution % ID/g. As to the method:
(§1) Pulmonary fibrosis was induced in 7-8-week-old male C57/BL6 mice by transtracheal administration of bleomycin (BM; 2.5 U/kg) in 50 μL of PBS under direct vision using a small cervical incision. Sham animals received only PBS. Animals were placed in a small-animal PET/SPECT/CT scanner (Triumph; TriFoil Imaging), equipped with inhalation anesthesia and heating pad. Each animal was anesthetized with isoflurane (4% for induction, 2-2.5% for maintenance in medical air) and body temperature was kept at 37-38° C. using a heating pad. The femoral vein was cannulated for intravenous delivery of the PET agent. Each mouse was injected with approximately 0.1 mL and 20-50 μCi of ^64Cu-CBP(n), 0.1 mL and 20-50 μCi of ^68Ga-CBP(n) and 0.1 mL and 10-20 μCi of Al^18F-CBP(n) in a 18 mM solution of sucrose in water, followed by saline flush. […] The lungs, blood, urine, heart, liver, left rectus femoris muscle, spleen, small intestine, kidneys, left femur bone were collected from all animals. The tissues were weighed, and radioactivity in each tissue was measured on a gamma counter (CobraII Auto gamma; Packard). The radioactivity in the lung was reported as percent injected dose per gram corrected with the average sham weight, which was calculated by dividing the counts of ^64Cu per average sham tissue weight in gram by the total of counts of the injected dose. The radioactivity in every other tissue was reported as percent injected dose per gram (% ID/g), which was calculated by dividing the counts of ^64Cu per gram of tissue by the total of counts of the injected dose. A p-value of less than 0.05 was considered significant. Uncertainties are expressed as the standard error of the mean.

The test system of data set [3] is pulmonary fibrosis, C57/BL6 mice (bleomycin or sham). Put plainly: in vivo. Format: in vivo, mouse. Conditions: for lung uptake in BM-treated (fibrotic) mice compared to sham, in words: biodistribution 2.5 hours after injection; for Biodistribution % ID/g, blood / Biodistribution % ID/g, heart / Biodistribution % ID/g, kidney / Biodistribution % ID/g, liver / Biodistribution % ID/g, lungs / Biodistribution % ID/g, sm. intestine / Biodistribution % ID/g, spleen / Biodistribution % ID/g, bone: male, C57/BL6, mouse; for Biodistribution % ID/g, blood / Biodistribution % ID/g, heart / Biodistribution % ID/g, kidney / Biodistribution % ID/g, liver / Biodistribution % ID/g, lungs / Biodistribution % ID/g, sm. intestine / Biodistribution % ID/g, spleen / route of excretion / Biodistribution % ID/g, bone: iv. As for the experimental part: as §1

T1 sequence (P02454 152-1207 limits assumed): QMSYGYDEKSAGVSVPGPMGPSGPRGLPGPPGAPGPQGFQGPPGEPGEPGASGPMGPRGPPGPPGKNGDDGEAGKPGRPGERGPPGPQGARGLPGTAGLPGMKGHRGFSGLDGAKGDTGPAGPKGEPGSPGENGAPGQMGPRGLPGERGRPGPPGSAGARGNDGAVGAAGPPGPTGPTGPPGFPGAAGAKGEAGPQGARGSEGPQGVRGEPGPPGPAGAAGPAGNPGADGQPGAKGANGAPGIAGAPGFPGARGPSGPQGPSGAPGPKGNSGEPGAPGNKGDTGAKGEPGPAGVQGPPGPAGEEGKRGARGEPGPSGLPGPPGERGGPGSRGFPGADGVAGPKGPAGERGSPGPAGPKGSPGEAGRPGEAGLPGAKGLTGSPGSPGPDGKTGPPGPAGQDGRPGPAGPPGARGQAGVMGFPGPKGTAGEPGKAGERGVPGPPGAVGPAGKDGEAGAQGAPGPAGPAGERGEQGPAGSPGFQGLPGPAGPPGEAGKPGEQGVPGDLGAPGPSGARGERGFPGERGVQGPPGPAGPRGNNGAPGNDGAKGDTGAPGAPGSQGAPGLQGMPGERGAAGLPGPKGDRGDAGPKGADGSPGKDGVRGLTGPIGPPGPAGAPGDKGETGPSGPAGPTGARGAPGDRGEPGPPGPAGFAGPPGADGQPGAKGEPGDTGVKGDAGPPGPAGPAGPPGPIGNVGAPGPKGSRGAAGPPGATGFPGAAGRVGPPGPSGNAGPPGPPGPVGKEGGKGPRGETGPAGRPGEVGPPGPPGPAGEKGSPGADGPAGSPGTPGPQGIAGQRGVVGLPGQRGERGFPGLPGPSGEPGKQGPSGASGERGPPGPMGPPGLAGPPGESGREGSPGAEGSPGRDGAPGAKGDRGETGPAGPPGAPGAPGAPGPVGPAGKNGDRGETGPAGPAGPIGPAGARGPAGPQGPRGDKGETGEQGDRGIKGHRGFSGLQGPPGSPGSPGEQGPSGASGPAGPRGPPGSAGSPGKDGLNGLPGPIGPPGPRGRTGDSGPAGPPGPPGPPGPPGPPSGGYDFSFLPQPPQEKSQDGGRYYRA
T1 sequence (P02466 86-1125 limits assumed): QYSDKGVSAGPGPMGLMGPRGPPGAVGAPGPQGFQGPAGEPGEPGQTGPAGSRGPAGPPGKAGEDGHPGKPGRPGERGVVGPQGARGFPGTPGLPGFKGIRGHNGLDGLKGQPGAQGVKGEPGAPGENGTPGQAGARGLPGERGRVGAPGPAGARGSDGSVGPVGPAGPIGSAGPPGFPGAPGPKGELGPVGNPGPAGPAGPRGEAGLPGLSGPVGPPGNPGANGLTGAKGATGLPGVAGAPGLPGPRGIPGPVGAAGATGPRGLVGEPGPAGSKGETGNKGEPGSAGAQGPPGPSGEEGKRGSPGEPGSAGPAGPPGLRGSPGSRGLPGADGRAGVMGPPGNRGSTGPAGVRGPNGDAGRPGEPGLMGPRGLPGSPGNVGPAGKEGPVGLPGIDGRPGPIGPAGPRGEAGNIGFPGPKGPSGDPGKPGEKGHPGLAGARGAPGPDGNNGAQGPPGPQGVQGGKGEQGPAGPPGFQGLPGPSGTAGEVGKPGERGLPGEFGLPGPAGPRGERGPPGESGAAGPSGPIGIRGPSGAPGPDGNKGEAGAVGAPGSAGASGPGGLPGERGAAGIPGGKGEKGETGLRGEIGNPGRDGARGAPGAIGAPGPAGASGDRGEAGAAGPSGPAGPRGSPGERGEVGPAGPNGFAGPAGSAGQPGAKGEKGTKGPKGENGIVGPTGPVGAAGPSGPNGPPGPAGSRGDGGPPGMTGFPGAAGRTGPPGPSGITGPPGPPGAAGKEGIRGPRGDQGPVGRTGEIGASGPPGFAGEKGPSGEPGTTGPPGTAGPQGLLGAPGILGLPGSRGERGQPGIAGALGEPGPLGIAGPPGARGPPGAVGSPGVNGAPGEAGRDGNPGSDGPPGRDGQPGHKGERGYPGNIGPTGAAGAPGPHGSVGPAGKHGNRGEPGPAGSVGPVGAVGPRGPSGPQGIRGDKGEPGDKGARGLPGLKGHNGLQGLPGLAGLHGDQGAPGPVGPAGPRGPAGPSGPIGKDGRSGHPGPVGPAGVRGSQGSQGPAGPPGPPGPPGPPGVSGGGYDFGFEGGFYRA

As to `CC(C)C[C@H](NC(=O)[C@@H]1CSSC[C@H](NC(=O)[C@H](Cc2c[nH]cn2)NC(=O)[C@H](Cc2c[nH]c3ccccc23)NC(=O)[C@H](CCC(N)=O)NC(=O)CNC(=O)CCC(C(=O)O)N2CCN(CC(=O)O)CCN(CC(=O)O)CC2)C(=O)N[C@@H](Cc2ccc(O)cc2)C(=O)N[C@@H]([C@@H](C)O)C(=O)N[C@@H](CC(C)C)C(=O)N[C@@H](Cc2ccccc2)C(=O)N2CCC[C@H]2C(=O)N[C@@H](Cc2c[nH]cn2)C(=O)N[C@@H](Cc2c[nH]cn2)C(=O)N[C@@H](Cc2ccc(O)cc2)C(=O)N1)C(=O)N[C@@H](Cc1ccc(O)cc1)C(=O)NCC(N)=O` (stereo partly drawn) [CBP6] ({NODAGA}-GQWHCYTLFPHHYCLYG-NH2; disulfide 5-14; C-terminus assumed), in data set [1], the affinity, expressed as Kd, was 14.6 ± 5.8 µM. Moreover, the tissue uptake at 2 h in data set [2] (blood) turned out to be 0.147 ± 0.01 %ID/g. In addition, the tissue uptake at 2 h in data set [2] (heart) was 0.121 ± 0.017 %ID/g. Moreover, the tissue uptake at 2 h in data set [2] (kidney) worked out at 13.4 ± 1.23 %ID/g. Besides, in data set [2] (liver), the tissue uptake at 2 h turned out to be 2.64 ± 0.144 %ID/g. Besides, the tissue uptake at 2 h in data set [2] (lungs) came out at 0.013 ± 0.002 %ID/g. In addition, the tissue uptake at 2 h in data set [2] (sm. intestine) was 0.747 ± 0.168 %ID/g. Moreover, the tissue uptake at 2 h in data set [2] (spleen) worked out at 0.669 ± 0.03 %ID/g. Also, in data set [3], the “lung uptake in BM-treated (fibrotic) mice compared to sham, in words” value is reported as “greater lung uptake in BM-treated mice”. In data set [3] (in vivo, 2 h), the “Biodistribution % ID/g, blood” value came to 0.279 ± 0.096 % ID/g; the “Biodistribution % ID/g, heart” value is reported as 0.156 ± 0.016 % ID/g; the “Biodistribution % ID/g, kidney” value was 14.008 ± 0.727 % ID/g; the “Biodistribution % ID/g, liver” value worked out at 2.503 ± 0.218 % ID/g. For the same molecule, in data set [3] (in vivo, 2 h), the “Biodistribution % ID/g, lungs” value is listed as 0.019 ± 0.003 % ID/g; the “Biodistribution % ID/g, sm. intestine” value is on record as 0.938 ± 0.164 % ID/g; the “Biodistribution % ID/g, spleen” value is 0.775 ± 0.084 % ID/g. Besides, the route of excretion entry in data set [3] (mouse, in vivo) is “excreted mainly through the kidneys”.
For the molecule `CC(C)C[C@H](NC(=O)[C@@H]1CSSC[C@@H](NC(=O)[C@H](Cc2c[nH]cn2)NC(=O)[C@H](Cc2c[nH]c3ccccc23)NC(=O)[C@H](CCCCNC(=O)CNC(=O)CCC(C(=O)O)N2CCN(CC(=O)O)CCN(CC(=O)O)CC2)NC(=O)CNC(=O)CCC(C(=O)O)N2CCN(CC(=O)O)CCN(CC(=O)O)CC2)C(=O)N[C@@H]([C@@H](C)O)C(=O)N[C@@H]([C@@H](C)O)C(=O)N[C@@H](CCCCNC(=O)CCC(C(=O)O)N2CCN(CC(=O)O)CCN(CC(=O)O)CC2)C(=O)N[C@@H](Cc2ccccc2)C(=O)N2CCC[C@H]2C(=O)N[C@@H](Cc2c[nH]cn2)C(=O)N[C@@H](Cc2c[nH]cn2)C(=O)N[C@@H](Cc2ccc(O)cc2)C(=O)N1)C(=O)N[C@@H](Cc1ccc(O)cc1)C(=O)N[C@@H](Cc1ccc(-c2ccccc2)cc1)C(N)=O` (stereo partly drawn) (64Cu complex, metal not drawn) [CBP11], the tissue uptake at 2.5 h in data set [2] (blood) amounted to 0.21 ± 0.017 %ID/g. Further, the tissue uptake at 2.5 h in data set [2] (heart) came to 0.143 ± 0.008 %ID/g. Moreover, the tissue uptake at 2.5 h in data set [2] (liver) was determined as 1.3 ± 0.086 %ID/g. Also, in data set [2] (spleen), the tissue uptake at 2.5 h is 0.408 ± 0.015 %ID/g. Also, in data set [3] (in vivo, 2.5 h), the “Biodistribution % ID/g, blood” value is 0.373 ± 0.180 % ID/g; the “Biodistribution % ID/g, heart” value is given as 0.170 ± 0.044 % ID/g; the “Biodistribution % ID/g, liver” value turned out to be 0.953 ± 0.069 % ID/g; the “Biodistribution % ID/g, spleen” value is on record as 0.475 ± 0.063 % ID/g.
The molecule `C[C@@H](O)[C@@H]1NC(=O)[C@@H](NC(=O)[C@H](Cc2c[nH]cn2)NC(=O)[C@H](Cc2c[nH]c3ccccc23)NC(=O)[C@H](CCC(N)=O)NC(=O)CNC(=O)CCC(C(=O)O)N2CCN(CC(=O)O)CCN(CC(=O)O)CC2)CSSC[C@@H](C(=O)N[C@@H](Cc2ccccc2)C(=O)N[C@@H](Cc2ccc(O)cc2)C(=O)NCC(N)=O)NC(=O)[C@H](Cc2ccc(O)cc2)NC(=O)[C@H](Cc2c[nH]cn2)NC(=O)[C@H](Cc2c[nH]cn2)NC(=O)[C@@H]2CCCN2C(=O)[C@H](Cc2ccccc2)NC(=O)[C@H](CCCNC(=N)N)NC(=O)[C@H]([C@@H](C)O)NC1=O` (stereo partly drawn) [CBP5] ({NODAGA}-GQWHCTTRFPHHYCFYG-NH2; disulfide 5-14) yielded a Kd in data set [1] of 7.2 ± 5.2 µM. The tissue uptake at 2 h in data set [2] (blood) amounted to 0.11 ± 0.018 %ID/g. In data set [2] (bone), the tissue uptake at 2 h amounted to 0.703 ± 0.343 %ID/g. Moreover, in data set [2] (heart), the tissue uptake at 2 h was found to be 0.075 ± 0.009 %ID/g. For the same molecule, the tissue uptake at 2 h in data set [2] (kidney) worked out at 30.5 ± 2.01 %ID/g. Besides, the tissue uptake at 2 h in data set [2] (liver) is 2.63 ± 0.146 %ID/g. Also, the tissue uptake at 2 h in data set [2] (lungs) stood at 0.318 ± 0.135 %ID/g. For the same molecule, the tissue uptake at 2 h in data set [2] (sm. intestine) is 0.513 ± 0.1 %ID/g. Moreover, the tissue uptake at 2 h in data set [2] (spleen) was found to be 0.815 ± 0.42 %ID/g. Besides, in data set [2] (Biodistribution % ID/lung), the tissue uptake dose at 2 h was 0.032 ± 0.016 %ID. Moreover, the “lung uptake in BM-treated (fibrotic) mice compared to sham, in words” value in data set [3] is “greater lung uptake in BM-treated mice”. Moreover, in data set [3] (in vivo, 2 h), the “Biodistribution % ID/g, blood” value was 0.121 ± 0.028 % ID/g; the “Biodistribution % ID/g, bone” value was 0.490 ± 0.237 % ID/g; the “Biodistribution % ID/g, heart” value was found to be 0.094 ± 0.013 % ID/g; the “Biodistribution % ID/g, kidney” value worked out at 18.368 ± 1.909 % ID/g. Also, in data set [3] (in vivo, 2 h), the “Biodistribution % ID/g, liver” value is listed as 3.836 ± 0.770 % ID/g; the “Biodistribution % ID/g, lungs” value was 0.623 ± 0.320 % ID/g; the “Biodistribution % ID/g, sm. intestine” value is 0.431 ± 0.089 % ID/g; the “Biodistribution % ID/g, spleen” value is listed as 1.588 ± 0.546 % ID/g. In data set [3] (mouse, in vivo), the “Biodistribution % ID/lung” value came to 0.016 ± 0.007 % ID/lung and the route of excretion entry is given as “excreted mainly through the kidneys”.
As for `CC(C)C[C@H](NC(=O)[C@@H]1CSSC[C@H](NC(=O)[C@H](Cc2c[nH]cn2)NC(=O)[C@H](Cc2c[nH]c3ccccc23)NC(=O)[C@H](CCCCNC(=O)CNC(=O)CN2CCN(CC(=O)O)CCN(CC(=O)O)CC2)NC(=O)CNC(=O)CN2CCN(CC(=O)O)CCN(CC(=O)O)CC2)C(=O)N[C@@H]([C@@H](C)O)C(=O)N[C@@H]([C@@H](C)O)C(=O)N[C@@H](CCCCNC(=O)CN2CCN(CC(=O)O)CCN(CC(=O)O)CC2)C(=O)N[C@@H](Cc2ccccc2)C(=O)N2CCC[C@H]2C(=O)N[C@@H](Cc2c[nH]cn2)C(=O)N[C@@H](Cc2c[nH]cn2)C(=O)N[C@@H](Cc2ccc(O)cc2)C(=O)N1)C(=O)N[C@@H](Cc1ccc(O)cc1)C(=O)N[C@@H](Cc1ccc(-c2ccccc2)cc1)C(N)=O` [CBP10, Al^18F-NOTA-cPep(7)], the tissue uptake at 2.5 h in data set [2] (bone) came to 2.53 ± 0.735 %ID/g. Also, in data set [2] (kidney), the tissue uptake at 2.5 h was found to be 26.2 ± 4.85 %ID/g. For the same molecule, the tissue uptake at 2.5 h in data set [2] (liver) is 14 ± 1 %ID/g. For the same molecule, in data set [2] (sm. intestine), the tissue uptake at 2.5 h was found to be 1.12 ± 0.48 %ID/g. For the same molecule, in data set [3] (in vivo, 2.5 h), the “Biodistribution % ID/g, bone” value worked out at 2.963 ± 0.716 % ID/g; the “Biodistribution % ID/g, kidney” value was determined as 44.170 ± 16.811 % ID/g; the “Biodistribution % ID/g, liver” value was 27.231 ± 0.995 % ID/g; the “Biodistribution % ID/g, sm. intestine” value was 1.492 ± 0.542 % ID/g.
